Experimental data reported in paper PMC12442068.

Biological target: recombinant TMPRSS2 (UniProt O15393)
Assay: enzyme inhibition kinetics (progress curve method); TMPRSS2 mixed with increasing SB3 (0-10 uM), fluorescent substrate Z-Gly-Gly-Arg-AMC, TBS pH 7.6, 25 °C, 300 s; Camostat mesylate as reference inhibitor

Question: Which dissociation constant, fold against Camostat does the source give for “recombinant SerpinB3 protein, wild type (from UniProt P29508 1-390) (natural protein)” here?
Answer: Its dissociation constant, fold against Camostat is 6 times lower.
